Data set [1] in a line: Reduction potential of polypeptide-bound heme/ferric cofactor vs. hydrogen electrode. The format is physicochemical. Here is the method:
In Example 2, the reduction potential of the peptides prepared in Example 1 is regulated by modulation of peptide ionic charge and cofactor structure. The net charge of the polypeptides is calculated using conventional methods known in the art.

Data set [2] can be described thus: Heme binding affinity by titration of heme into anaerobic protein solution. Particulars: oxidized heme; read-out: oxidized heme binding constant.
The format of data set [3] is physicochemical. As for the experimental part: The reduced heme binding constants are also measured for His42→Phe mutants of the polypeptides.

Substitutions are numbered along the chain they refer to.

On to “CGGGEIWKQHEEALKKFEEALKQFEELKKL (listed as Chemical synthesis) [HP-1]”, for which the “reduction potential difference spanned by three distinct ferric cofactors bound via bis-histidine ligation” value in data set [1] (three ferric cofactors, FIG. 4A) is “approximately 400 mV”.

B1: GEIWKQHEDALQKFEEALNQFEDLKQLGGSGCGSGGEIWKQHEDALQKFEEALNQFEDLKQL (protein, listed as Chemical synthesis)
chain: GEIWKQHEDALQKFEEALNQFEDLKQLGGSGCGSGGEIWKQHEDALQKFEEALNQFEDLKQL
notes: homodimeric helix-loop-helix variant of HP-6, recombinantly expressed in E. coli
Consider B1, for which, in data set [2], the Kd is 0.22 nM. Besides, in data set [1] (difference vs HP-1-heme complex, earlier experiments), the “reduction potential of heme complex, more positive than HP-1-heme complex” value came to 45 mV.

B2: CC-10: HP-7 modified to incorporate the preferred consensus sequence (protein, listed as Chemical synthesis)
chain: B1 chain with W39L, E43A, L46A, F49I, E50F
For B2, in data set [2], the Kd is 0.0107 nM. Further, in data set [3], the “stability of heme-bound complex” value is listed as “long-term stability”.

B3: CC-9: HP-7 peptide with specific Glu→Ala mutations (protein, listed as Chemical synthesis)
chain: B1 chain with E43A, E50A, E57A
Turning to B3, in data set [1] (difference vs HP-7, FIG. 4B), the “increase in bound heme reduction potential compared to HP-7” value is recorded as 101 mV.

The record behind these values is patent US8901069B2, “Protein matrix for light-initiated electron transfer” (Research Foundation of The City University of New York, priority 2009, dated 2014).
